Laboratory results as given in paper PMC4256047, “Structural and Functional Profiling of Environmental Ligands for Estrogen Receptors” (Environmental Health Perspectives, 2014).
Where no end group is shown, it is not given here. fluorescein = fluorescein label on the N-terminus of the peptide

How the values were obtained:
Settings in all cases: both partners purified
[1] = molecular target: T1, human wt-ERβ LBD (estrogen receptor beta ligand-binding domain, amino acids 261-502) (human, UniProt Q92731 261-502); assay: fluorescence polarisation; fluorescence anisotropy; 4 nM fluorescein-SRC-1 NR2 peptide, LBD diluted 2-fold from 10 uM (ERα) or 20 uM (ERβ); with BP-2 at 20 uM (ERα) or 40 uM (ERβ); 20 mM Tris pH 8.0, 150 mM NaCl, 5 mM DTT, 10% glycerol
T1 construct: Cloned into pET-32a; N-terminal thioredoxine-hexahistidine tag removed with TEV protease; not shown: thioredoxin, N-terminal, cleaved; His6, N-terminal, cleaved

[2] = molecular target: T1, human wt-ERβ LBD (estrogen receptor …); assay: fluorescence polarisation; fluorescence anisotropy; 4 nM fluorescein-SRC-1 NR2 peptide, LBD diluted 2-fold from 10 uM (ERα) or 20 uM (ERβ); with butylparaben at 20 uM (ERα) or 40 uM (ERβ); 20 mM Tris pH 8.0, 150 mM NaCl, 5 mM DTT, 10% glycerol
[3] = molecular target: T1, human wt-ERβ LBD (estrogen receptor …); assay: fluorescence polarisation; fluorescence anisotropy; 4 nM fluorescein-SRC-1 NR2 peptide, LBD diluted 2-fold from 10 uM (ERα) or 20 uM (ERβ); with chlordecone at 20 uM (ERα) or 40 uM (ERβ); 20 mM Tris pH 8.0, 150 mM NaCl, 5 mM DTT, 10% glycerol
[4] = molecular target: T1, human wt-ERβ LBD (estrogen receptor …); assay: fluorescence polarisation; fluorescence anisotropy; 4 nM fluorescein-SRC-1 NR2 peptide, LBD diluted 2-fold from 10 uM (ERα) or 20 uM (ERβ); with TCBPA at 20 uM (ERα) or 40 uM (ERβ); 20 mM Tris pH 8.0, 150 mM NaCl, 5 mM DTT, 10% glycerol
[5] = molecular target: T2, human wt-ERα LBD (estrogen receptor alpha ligand-binding domain, amino acids 302-552) (human, UniProt P03372 302-552); assay: fluorescence polarisation; fluorescence anisotropy; 4 nM fluorescein-SRC-1 NR2 peptide, LBD diluted 2-fold from 10 uM (ERα) or 20 uM (ERβ); with BPA at 20 uM (ERα) or 40 uM (ERβ); 20 mM Tris pH 8.0, 150 mM NaCl, 5 mM DTT, 10% glycerol
T2 sequence (looked up): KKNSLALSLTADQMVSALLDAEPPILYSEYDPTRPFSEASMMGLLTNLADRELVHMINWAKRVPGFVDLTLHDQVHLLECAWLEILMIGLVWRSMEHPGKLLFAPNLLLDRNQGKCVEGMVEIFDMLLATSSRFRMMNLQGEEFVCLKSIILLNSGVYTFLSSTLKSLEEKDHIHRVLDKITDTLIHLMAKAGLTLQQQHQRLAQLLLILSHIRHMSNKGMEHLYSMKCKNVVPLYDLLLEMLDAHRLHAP

[6] = molecular target: T1, human wt-ERβ LBD (estrogen receptor …); assay: as above
[7] = molecular target: T2, human wt-ERα LBD (estrogen receptor …); assay: fluorescence polarisation; fluorescence anisotropy; 4 nM fluorescein-SRC-1 NR2 peptide, LBD diluted 2-fold from 10 uM (ERα) or 20 uM (ERβ); with E2 at 20 uM (ERα) or 40 uM (ERβ); 20 mM Tris pH 8.0, 150 mM NaCl, 5 mM DTT, 10% glycerol
[8] = molecular target: T1, human wt-ERβ LBD (estrogen receptor …); assay: as above
[9] = molecular target: T2, human wt-ERα LBD (estrogen receptor …); assay: fluorescence polarisation; fluorescence anisotropy; 4 nM fluorescein-SRC-1 NR2 peptide, LBD diluted 2-fold from 10 uM (ERα) or 20 uM (ERβ); with α-ZA at 20 uM (ERα) or 40 uM (ERβ); 20 mM Tris pH 8.0, 150 mM NaCl, 5 mM DTT, 10% glycerol
[10] = molecular target: T2, human wt-ERα LBD (estrogen receptor …); assay: fluorescence polarisation; fluorescence anisotropy; 4 nM fluorescein-SRC-1 NR2 peptide, LBD diluted 2-fold from 10 uM (ERα) or 20 uM (ERβ); with OHT (4-hydroxytamoxifen) at 20 uM (ERα) or 40 uM (ERβ); 20 mM Tris pH 8.0, 150 mM NaCl, 5 mM DTT, 10% glycerol
[11] = molecular target: T1, human wt-ERβ LBD (estrogen receptor …); assay: as above

T1 sequence (Q92731 261-502): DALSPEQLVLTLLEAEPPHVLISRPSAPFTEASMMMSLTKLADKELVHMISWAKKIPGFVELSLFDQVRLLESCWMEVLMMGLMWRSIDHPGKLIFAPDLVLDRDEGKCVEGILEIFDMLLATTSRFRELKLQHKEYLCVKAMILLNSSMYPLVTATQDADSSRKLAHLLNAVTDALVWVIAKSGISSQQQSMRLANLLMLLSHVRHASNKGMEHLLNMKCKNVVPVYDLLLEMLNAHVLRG

Kd [1]: 0.99 µM
Kd [2]: 1.13 µM
Kd [3]: 9.13 µM
Kd [4]: 4.33 µM
Kd [5]: 1.76 µM
Kd [6]: 1.31 µM
Kd [7]: 0.11 µM
Kd [8]: 0.68 µM
Kd [9]: 0.33 µM
Kd [10]: 23.6 µM
Kd [11]: 38.8 µM
B1: fluorescein-RHKILHRLLQEGS peptide corresponding to the NR box 2-binding motif of SRC-1 (peptide)
peptide: fluorescein-RHKILHRLLQEGS
notes: also called SRC-1 NR2 peptide; fluorescein-labeled SRC-1 NR2 peptide; source: bought: EZbiolab
